The DeepSol protein solubility set

Assay: soluble on expression in E. coli; label from the status in PepcDB or PDB records
In the case of “MTAPISLRLVVEARDLPPMLPDVLRERFDRGETGVAWAPEHDASVGAPLGVLGGPEATAWPFAISEPPPVNVPALCAVGPCWWYPSFGAVIGNDGALYNATVGEARHGSADLSAIPGVASGGTRLVPPQDAPVLDGGAVFMPWGAGFNYGHFVIDALPSILALEQAGLLHDTPLLAPRLTDWQRELIAMATPGVRLQEVDAPAVRLGRAVFATSMDHFLHHPNGLLATLAERVTANAPKGAGARRVYLSRRGQSMRVMVGEAAFERALQARGFVIVRPETLGARAQVALMRDAEIIVGASGAALANAVFLPRGARVIEIQPTNFTSQWVRAACRQVGVEWRGYVCASPCPAHAAPLLARLRRGFKFAFRPDLDDLLSFVDAALLEHHHHHH”, the “soluble on expression in E. coli” value is reported as “not soluble”. For “MTIHQHPHVTDRDAHFVGGGIASLAGAAFLVRDGNMPGENIHVYEKLDVVGGAMDGAGDPDEAYLIRGGRMFNYPAYECTWDLFETIPSLEDDSRSVKAVMDEFNETHPSYAKTRLMHEGERIDAGEYGLTRQHRQSIARLLLTPEPRLGDTRIEEWFDESFLETNFWYVWATIFAFQPWHSVAEVRRYMYRFLHEFPQLHTMEGIDRTKYNQYDSMILPLRRWLEDRGVSFEYGHEVTDMDIVPSRTGRTVERLYCETDSGTETVPVEPSDLVFVTNGSMTDGSSIGGMDEAPELNETGASWELWKSIAEDNPQFGNPSVFADNVTETKWESFTVTLHNTDLFDHIVDFTNEEPGNGLVTYLGSNWLLSTVVAAQPHFANQPDDVKVFWGYALFPDREGNYVEKPMSECTGREILQELCYHLQCEERLPEILDDVTCIPAMMPFITAHFQPREPGDRPDVVPDGSNNLAFLGQYAEQPRDVVFTVEYSVRSAMTAVYEMLDLDREVPPVSKHYRKPGVIADTVRAAYRLEHHHHHH”, the “soluble on expression in E. coli” value was “not soluble”. For “MRHRVKKKHFDRTKEQRLALYRSLARALIFDERIETTVERAKALRSFIEPLVELAKEGTLHARRQALSRLPDKPAIKKLFEDIAPRFEGRNGGYVRIIKLPYRRRGDGAEMAIIEWVELEHHHHHH”, the “soluble on expression in E. coli” value was “not soluble”. With “MELLRPEATVLSLGRRVLSFDREGRPYHYFREGKTYKRALDGSLHLRYREGERRRRRLAPEEALGVYQEVLDLAEAHLRDERRREEVLRWTPEGLLDPTPYRRAYAWPVSILPPDAYLSVVLQATTGCTWNRCAFCSFYQDRPFQKRTPEAFREHIQAVLALLGRGRLLRRGVFLADGNALALSEPLLPLLELVRAHFPGEPVMGFLDLFTGLKKAPSWWERLGGMGLRRVYIGLETGHAPLLALLRKPGHPKEVLPLVRALKSSGLSVGVILMVGSGGKAFAEAHFRESLALLAELPLGRGDVVYLSPFREDPGTPYAALGLAPLEDLEGELQRWAQAVRRLGLRASRYEIRE” the “soluble on expression in E. coli” value was “soluble”. With “AHHHHHHGSIRASKRALSVEYAIRDVVLPARELEKKGIKVIRLNIGDPVKFDFQPPEHMKEAYCKAIKEGHNYYGDSEGLPELRKAIVEREKRKNGVDITPDDVRVTAAVTEALQLIFGALLDPGDEILVPGPSYPPYTGLVKFYGGKPVEYRTIEEEDWQPDIDDIRKKITDRTKAIAVINPNNPTGALYDKKTLEEILNIAGEYEIPVISDEIYDLMTYEGEHISPGSLTKDVPVIVMNGLSKVYFATGWRLGYMYFVDPENKLSEVREAIDRLARIRLCPNTPAQFAAIAGLTGPMDYLKEYMKKLKERRDYIYKRLNEIPGISTTKPQGAFYIFPKIEVGPWKNDKEFVLDVLHNAHVLFVHGSGFGEYGAGHFRAVFLPPIEILEEAMDRFEKFMKERLKE” the “soluble on expression in E. coli” value was “soluble”. For “MERYVWARFFWQQARDKRGVPRRHVCDTARNNNRRPETGTAFTALCSTTVTPHPDDDDTVKGTCFAPACQVCTILLARAMNWNDGELGQLVQTFHWTHADIALLATALDITRSEARRLLTAWTDAAK”, the “soluble on expression in E. coli” value was “not soluble”. With “GSLNITENESISTAVIDAINSGATLKDINAIPDDMMDDIYSYAYDFYNKGRIEEAEVFFRFLCIYDFYNVDYIMGLAAIYQIKEQFQQAADLYAVAFALGKNDYTPVFHTGQCQLRLKAPLKAKECFELVIQHSNDEKLKIKAQSYLDAIQ” the “soluble on expression in E. coli” value was “soluble”. For “MEKLENFWTRDELNTFFDYVTPERDVEQFTMFRVLAYSGIRKGELLALTWKDINFEDNTLRVNKTLTQGLGGKLIVQPPKSRAGRRTIDLDDSTMRYLRQWKGVQRETFLGMGFNTNNVDQLVFASNRNHFRSMNTPTKWLNKAIKATGLKHISIHGFRHTHASLLYQSGVGLKETQQRLGHSRADSSVTLDVYTHTTEQQNVAALQRFENYVEAKLEHHHHHH”, the “soluble on expression in E. coli” value was “not soluble”. With “NKDWRINGYVNFSRNENKITELPANMVQENYSPKNGAYAARAEVGRPIGSFYGYRYKGVYQNTDATYARDAEGNVMNDAKGRPIVMKNLTATCQPGDAMYEDINHDGVINQYDIVYLGNANPTLTGGAGLTVKYKQFSINTFFHGRFGQSVVNTARMNNESMHGNANQSTAVLRRWKNEGDITDIPRALYGEGFNYLGSDRFVEDTSFLRLKQLTLNYAFPKSICNKLGITSLTCFVTGYNLFTWSSYTGQDPEVNLPSRPTDLATDGATTPVSRRYTFGFNLSF” the “soluble on expression in E. coli” value was “not soluble”. In the case of “MASIMYTPKDIFEQEFKSSMRGYDKKEVDEFLDDIIKDYETYISTIEELRQENTRLKEEVKQAKKRQEAAQTTVSPAASVSSSRVATTATNFDILKRISRLEKEVFGKQITE”, the “soluble on expression in E. coli” value is reported as “not soluble”. With “MGSDKIHHHHHHMSDIKFNSMTHFEAVARLGGVAKAAQELQVTPSAVSQQLRLLEHQLGVRLFQREKRHLSLTIDGERLFQTTTQAFESIREVRNAIVRQRESFQLSLRVSPSFGEKWLAPRLAEFSKDYPSWNLRVDATPNFSDFETEVIDLDLRYGDGGWAGLYSDCVVNDLILPMCSPSYLAELRGLSVDPREQLGHARLIDSVKAYFRWDYWLPRNGIQGARMTYPYRFDRSSMSVQLAKDGAGVVLESTTIAFEDLVSGSLVPVSTEFDVIEFPGYWLVCPSRHMNRRAVRLFSDWVSRVGQRDTDRARQFLSESGLHISFERRPHFGTPDDRAATML” the “soluble on expression in E. coli” value was “not soluble”. In the case of “MGSDKIHHHHHHMPLPRGSSLVRIPGNIPVGLDMKERLAYFEYDPLVSGQRAYAVAALLPQGFTRTLLPACVGSSGEALLPLLGYAAVGLKEGKIYVAAVQSDEHRKWHPHYYNTERLPAKINRMLKKYPGNMILHQLARCSLEYGCFTAQNIFYQRWEGGIPSMKACNAACIACISEDHCGTASPQNRLDFAPTVQEIVEVASEHLLRARDAIISFGQGCEGEPALNGKRLSQAIRRIRDLCAQGTINMNTNAGYCEGVKLMTDAGMDSMRVTIFSAIEENYMTYHCPQDYSLADVEYSITYAREHGVKISLNLLTFPGFTDRMEEVEALLEFVRKNQVDMIQFRNLNIDPEFLMRIFPGKSPVLGISNFVKLLESELPGVRIGSYTHPVHR”, the “soluble on expression in E. coli” value is reported as “not soluble”. For “MSLKYEYCPICGKKLEKKYSYDEGDVPYCQKDKIMFFDVPKPCVLVAVIKGQEILLLKQEYTFKDSKILVSGYVANGETVEETVVREVKEEVGIIVEKPEYLGSYYFKPKELIMLTFMVRYVSGEITKSQEVDEAYWVNMRDVLQEMNEDKVGKDVVKKVFKRIGYNEEKYLHKEGHHHHHH”, the “soluble on expression in E. coli” value was “not soluble”. In the case of “MGSDKIHHHHHHMLGINRKLEQLESDGTIIRVGLVGAGQMGRGMVSQIESMKGMRVVVTADIVLENVKLAYERAGVPKDEVIETDEISKAADAIQAGKVVATGDAELVTALSEVDVVVDATGIPNIGAKIAWDAILNKKHIVMLNVEADVTVGPLLKQMADACGVVYTGSAGDEPGAVMELYDFADALGFEVVALGKGKNNPLNVEANPQTAAEEAKRKGASPKMLASFQDGTKTMVEMTAVANATGFLPDKPGMNGFVGTVEELPAIFRRKEEGGQVENERIVEYINGVAPGVFAIVKSDKEEVNHEMTYLSMGEGPNYVLYRPYHLTSLETPISIARAHLYHEATIAPWQGLQAETVAVAKKDLAAGEFLDSIGGFTVYGTILTVTDAKEKGALPIGLVDAHVQVKRPIKKGEIITYDDVEQKKESTIWRLRRIQDETLVGKRELEAKV”, the “soluble on expression in E. coli” value is reported as “not soluble”. For “MSININRQNMHKMLQYKRRCIMYINTGYLNHSHKDFKDKSRPLIVGSCGTYRLSQHPKMPTYRPRGRLDYQIIYISSGLVHFHFDNPENETIIPAGHIVLFRPKELQKYEFYGKDKTQIYWLHFTGSDVKNTLRKYGFTDNKRVFNVGTSLEYEQVFKRIITELQRCQDNYEEMLMLLLRHLLIIFNRKITTEHVIRNEFLDSQMDTAITYFNTNYNRSINVEEYASSIGMSISWFIRSFRKYTGNTPVQFLTALRMTNAQVLLETTSYSINEIAGIVGYNNPLYFSRLFHKQKGCSPSEYRARNT”, the “soluble on expression in E. coli” value was “not soluble”. In the case of “MSNVLIINAMKEFAHSKGALNLTLTNVAADFLRESGHQVKITTVDQGYDIESEIENYLWADTIIYQMPAWWMGEPWILKKYIDEVFTDGHGRLYQSDGRTRSDATKGYGSGGLIQGKTYMLSVTWNAPREAFTDPEQFFHGVGVDGVYLPFHKANQFLGMKPLPTFMCNDVIKQPDIEGDIARYRQHLAENVNS”, the “soluble on expression in E. coli” value is reported as “not soluble”. For “MSLESGELIGACEFMKDRLYFATLRNRPKSTVNTHYFSIDEELVYENFYADFGPLNLAMVYRYCCKLNKKLKSYSLSRKKIVHYTCFDQRKRANAAFLIGAYAVIYLKKTPEEAYRALLSGSNPPYLPFRDASFGNCTYNLTILDCLQGIRKGLQHGFFDFETFDVDEYEHYERVENGDFNWIVPGKFLAFSGPHPKSKIENGYPLHAPEAYFPYFKKHNVTAVVRLNKKIYEAKRFTDAGFEHYDLFFIDGSTPSDNIVRRFLNICENTEGAIAVHCKAGLGRTGTLIACYVMKHYRFTHAEIIAWIRICRPGSIIGPQQHFLEEKQASLWVQGDIFRSKLKNRPSSEGEGHHHHHH”, the “soluble on expression in E. coli” value was “soluble”. For “MGSEFSIDQKRYLEGFATGVTAARAARGSLPAGSAASPSGPDAIHHQAQDRVTASGKKLNDQEKWKREQHPFDAYARLKQQAKDNAAPKPADNFRWRYYGLFYVAPAQTSYMCRLRIPNGILTSWQMAGLAYLADTLADGYAHVTTRANLQMREIAPKDAVQLLQGIESLGLWARGSGADNIRNVTGSATAGIDPQELIDTRAYARDWHFYILNERALFGLPRKFNVAFDGGGLIPTLEDTNDIAFQAVTIGDGHGVAPGVYFRLALGGITGHKDFARDTGVIVAPDEATEVADAIVRVFIEHGDRTDRNKARLKYVLDAFGFDKYLELVEDKLGRKLIRVPAEAAAPRPAQDRAAHLGVHPQQQAGMNWIGVRLATGHLTSVQMRGLAEIARSFGDGDLRLTVWQNLLISGVPDARVTDATAAIEALGLAITASPLRAGLIACTGASGCRFAAAHTKETAEAIAQYCEPRVPLDTPINIHLTGCHNSCAQHFISDIGLIGAKVAVSDEDSVEGFHIHVGGGFGVDAAIGTEVLRDVKQDDAPRVIERMLQTYLARRASPAETFLAFVRRQDAAALQQLFAYEQSPETVA”, the “soluble on expression in E. coli” value was “not soluble”. For “MRLHIGGREKHPDWKIFDALERPEVNFVGNAADLSQFADDSIEAIYASHVLEHFHHSLGNELVSVLLEWRRVLLPNGKLYISVPDLQTLSWLFLSPMAGFQHRLQIMRMMFGGQVDQYDVHKVGFDCEILFTYLQAAKFSDYERVENFELFQDCSNLVFLGYPISLNVVAVKLEHHHHHH”, the “soluble on expression in E. coli” value was “not soluble”. With “MKIQCDVCEKAPATVICCADEAALCPQCDIEIHAANKLASKHQRLHLNSLSTKFPRCDICQEKAAFIFCVEDRALLCRDCDESIHVANSRSANHQRFLATGIKVALTSTICSKEIEKNQPEPSNNQQKANQIPAKSTSQQQQQPSSATPLPWAVDDFFHFSDIESTDKKGQLDLGAGELDWFSDMGFFGDQINDKALPAAEVPELSVSHLGHVHSYKPMKSNVSHKKPRFETRYDDDDEEHFIVPDLG” the “soluble on expression in E. coli” value was “not soluble”. With “MAIRLYKLAVALGVFIVSAPAFSHGHHSHGKPLTEVEQKAANGVFDDANVQNRTLSDWDGVWQSVYPLLQSGKLDPVFQKKADADKTKTFAEIKDYYHKGYATDIEMIGIEDGIVEFHRNNETTSCKYDYDGYKILTYKSGKKGVRYLFECKDPESKAPKYIQFSDHIIAPRKSSHFHIFMGNDSQQSLLNEMENWPTYYPYQLSSEEVVEEMMSH” the “soluble on expression in E. coli” value was “soluble”.
